{
  "source": "paper PMC11435032",
  "about": "“Development of Biolayer Interferometry (BLI)-Based Double-Stranded RNA Detection Method with Application in mRNA-Based Therapeutics and Vaccines”",
  "key": {"J2 anti-dsRNA antibody": {"tested_on": "J2 anti-dsRNA antibody", "experiment": "BLI", "details": "kinetic, BLI (Octet RED384): 10 mM Tris pH 8.0, 100 mM NaCl, 0.1 mg/mL yeast tRNA, 0.1 mM EDTA, 0.05% Tween-20, temperature not stated"}, "[1]": {"tested_on": "B2 (FHV B2 1-73) (Flock House Virus)", "experiment": "BLI", "details": "BLI (Octet RED384): 10 mM Tris pH 8.0, 100 mM NaCl, 0.1 mg/mL yeast tRNA, 0.1 mM EDTA, 0.05% Tween-20, temperature not stated"}, "K1 anti-dsRNA antibody": {"tested_on": "K1 anti-dsRNA antibody", "experiment": "BLI", "details": "BLI (Octet RED384): 10 mM Tris pH 8.0, 100 mM NaCl, 0.1 mg/mL yeast tRNA, 0.1 mM EDTA, 0.05% Tween-20, temperature not stated"}, "B2-Biotin (B2-Avi)": {"target": "B2-Biotin (B2-Avi) (Flock House Virus, UniProt P68831 1-73)", "sequence (P68831 1-73)": "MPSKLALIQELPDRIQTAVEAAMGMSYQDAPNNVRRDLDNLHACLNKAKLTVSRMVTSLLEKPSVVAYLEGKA", "experiment": "BLI; avidity surface; lower asymptote than long dsRNA; BLI (Octet RED384): 10 mM Tris pH 8.0, 100 mM NaCl, 0.1 mg/mL yeast tRNA, 0.1 mM EDTA, 0.05% Tween-20; temperature not stated", "details": "protein: recombinant; tags: N-terminal 6xHis; C-terminal GS linker-AviTag, biotinylated by BirA in vivo; chain copies: 2; blunt"}, "[2]": {"details": "U replaced by N1-methylpseudouridine"}},
  "data": [
    {"molecule": "700 bp-ψ", "values": [
      {"measurement": "Kd", "setting": "J2 anti-dsRNA antibody; U replaced by pseudouridine", "result": 32, "unit": "nM"},
      {"measurement": "Kd", "setting": "[1]; U replaced by pseudouridine", "result": 405, "unit": "nM"}
    ]},
    {"molecule": "700 bp-m1ψ", "values": [
      {"measurement": "Kd", "setting": "J2 anti-dsRNA antibody; [2]", "result": 56, "unit": "nM"},
      {"measurement": "Kd", "setting": "[1]; [2]", "result": 669, "unit": "nM"}
    ]},
    {"molecule": "700 bp-U", "values": [
      {"measurement": "Kd", "setting": "J2 anti-dsRNA antibody", "result": 27, "unit": "nM"},
      {"measurement": "Kd", "setting": "K1 anti-dsRNA antibody", "result": 325, "unit": "nM"},
      {"measurement": "Kd", "setting": "[1]", "result": 62, "unit": "nM"}
    ]},
    {"molecule": "700 bp-5 moU", "values": [
      {"measurement": "Kd", "setting": "J2 anti-dsRNA antibody; U replaced by 5-methoxyuridine", "result": 131, "unit": "nM"},
      {"measurement": "binding signal (fold weaker than 700 bp-U)", "setting": "K1 anti-dsRNA antibody; Kd value missing in material, U replaced by 5-methoxyuridine", "result": 4},
      {"measurement": "Kd", "setting": "[1]; U replaced by 5-methoxyuridine", "result": 948, "unit": "nM"}
    ]},
    {"molecule": "25 bp-U dsRNA (dsRNA) RNA 1: CACGUACCGUUCUAGCGGGCUCUCG RNA 2: CGAGAGCCCGCUAGAACGGUACGUG", "values": [
      {"measurement": "binding result", "setting": "B2-Biotin (B2-Avi)", "result": "binds"}
    ]},
    {"molecule": "25 bp-m1ψ dsRNA (dsRNA, U replaced by N1-methylpseudouridine) RNA 1: CACGUACCGUUCUAGCGGGCUCUCG RNA 2: CGAGAGCCCGCUAGAACGGUACGUG", "values": [
      {"measurement": "binding result", "setting": "B2-Biotin (B2-Avi)", "result": "binds"}
    ]}
  ]
}
